Patent EP4772193A1 (Teijin Pharma Limited, dated 2026)

T1: recombinant human soluble gpNMB (recombinant human gpNMB-FLAG-His) (human, UniProt Q14956 23-498)
T1 sequence: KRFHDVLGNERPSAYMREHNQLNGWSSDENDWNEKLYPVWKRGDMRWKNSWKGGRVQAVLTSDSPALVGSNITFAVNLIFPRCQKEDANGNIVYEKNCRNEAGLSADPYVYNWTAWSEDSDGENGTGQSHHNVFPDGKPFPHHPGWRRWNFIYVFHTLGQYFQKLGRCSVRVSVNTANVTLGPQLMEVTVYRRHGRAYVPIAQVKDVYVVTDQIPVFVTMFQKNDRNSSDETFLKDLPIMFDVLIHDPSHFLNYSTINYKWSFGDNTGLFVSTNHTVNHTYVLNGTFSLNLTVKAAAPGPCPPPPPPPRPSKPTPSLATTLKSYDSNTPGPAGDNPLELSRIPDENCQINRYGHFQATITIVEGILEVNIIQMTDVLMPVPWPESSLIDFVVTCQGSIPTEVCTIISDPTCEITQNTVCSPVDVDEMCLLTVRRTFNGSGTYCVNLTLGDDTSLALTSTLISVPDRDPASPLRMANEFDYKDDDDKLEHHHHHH


Assays:
[1] = target: T1, recombinant human soluble gpNMB …; test: antigen ELISA
[2] = target: T1, recombinant human soluble gpNMB …; test: antigen ELISA, vs hGPN06-1_H1L1

| Binder | EC50 [1] [nM] | Relative binding activity [2] |
| --- | --- | --- |
| hGPN06-1_H1L1 VH N32A (antibody, V domains shown) VH: QVQLVQSGAEVKKPGASVKVSCKASGYTFTDAWMGWVKQRPGQGLEWIGAIDPSDSFTNYNQNFKGRVTMTVDTSISTAYMELSRLRSDDSAVYFCTRSGYYGSPKLGGDYWGQGTLVTVSS VL: EIVLTQSPSSLSASVGDRVTITCSASSSISYMHWYQQKSGTAPKLLIYSTSNLASGVPSRFSGSGSGTDFTFTISSLQPEDAATYYCHQWNSYPCTFGGGTKLEIK | 7.83 | 0.35 |
| hGPN06-1_H1L1 VH F29A (antibody, V domains shown) VH: QVQLVQSGAEVKKPGASVKVSCKASGYTATDNWMGWVKQRPGQGLEWIGAIDPSDSFTNYNQNFKGRVTMTVDTSISTAYMELSRLRSDDSAVYFCTRSGYYGSPKLGGDYWGQGTLVTVSS VL: EIVLTQSPSSLSASVGDRVTITCSASSSISYMHWYQQKSGTAPKLLIYSTSNLASGVPSRFSGSGSGTDFTFTISSLQPEDAATYYCHQWNSYPCTFGGGTKLEIK | 4.8 | 0.54 |
| hGPN06-1_H1L1 VH G35A (antibody, V domains shown) VH: QVQLVQSGAEVKKPGASVKVSCKASGYTFTDNWMAWVKQRPGQGLEWIGAIDPSDSFTNYNQNFKGRVTMTVDTSISTAYMELSRLRSDDSAVYFCTRSGYYGSPKLGGDYWGQGTLVTVSS VL: EIVLTQSPSSLSASVGDRVTITCSASSSISYMHWYQQKSGTAPKLLIYSTSNLASGVPSRFSGSGSGTDFTFTISSLQPEDAATYYCHQWNSYPCTFGGGTKLEIK | 3.55 | 1.4 |
| hGPN06-1_H1L1 VH N61A (antibody, V domains shown) VH: QVQLVQSGAEVKKPGASVKVSCKASGYTFTDNWMGWVKQRPGQGLEWIGAIDPSDSFTNYAQNFKGRVTMTVDTSISTAYMELSRLRSDDSAVYFCTRSGYYGSPKLGGDYWGQGTLVTVSS VL: EIVLTQSPSSLSASVGDRVTITCSASSSISYMHWYQQKSGTAPKLLIYSTSNLASGVPSRFSGSGSGTDFTFTISSLQPEDAATYYCHQWNSYPCTFGGGTKLEIK | 26.1 | 0.04 |
| hGPN06-1_H1L1 VH I51A (antibody, V domains shown) VH: QVQLVQSGAEVKKPGASVKVSCKASGYTFTDNWMGWVKQRPGQGLEWIGAADPSDSFTNYNQNFKGRVTMTVDTSISTAYMELSRLRSDDSAVYFCTRSGYYGSPKLGGDYWGQGTLVTVSS VL: EIVLTQSPSSLSASVGDRVTITCSASSSISYMHWYQQKSGTAPKLLIYSTSNLASGVPSRFSGSGSGTDFTFTISSLQPEDAATYYCHQWNSYPCTFGGGTKLEIK | 0.993 | 0.89 |
| hGPN06-1_H1L1 VH F57A (antibody, V domains shown) VH: QVQLVQSGAEVKKPGASVKVSCKASGYTFTDNWMGWVKQRPGQGLEWIGAIDPSDSATNYNQNFKGRVTMTVDTSISTAYMELSRLRSDDSAVYFCTRSGYYGSPKLGGDYWGQGTLVTVSS VL: EIVLTQSPSSLSASVGDRVTITCSASSSISYMHWYQQKSGTAPKLLIYSTSNLASGVPSRFSGSGSGTDFTFTISSLQPEDAATYYCHQWNSYPCTFGGGTKLEIK | 32.5 | 0.09 |
| hGPN06-1_H1L1 VH G26A (antibody, V domains shown) VH: QVQLVQSGAEVKKPGASVKVSCKASAYTFTDNWMGWVKQRPGQGLEWIGAIDPSDSFTNYNQNFKGRVTMTVDTSISTAYMELSRLRSDDSAVYFCTRSGYYGSPKLGGDYWGQGTLVTVSS VL: EIVLTQSPSSLSASVGDRVTITCSASSSISYMHWYQQKSGTAPKLLIYSTSNLASGVPSRFSGSGSGTDFTFTISSLQPEDAATYYCHQWNSYPCTFGGGTKLEIK | 1.21 | 1.08 |
| hGPN06-1_H1L1 VH M34A (antibody, V domains shown) VH: QVQLVQSGAEVKKPGASVKVSCKASGYTFTDNWAGWVKQRPGQGLEWIGAIDPSDSFTNYNQNFKGRVTMTVDTSISTAYMELSRLRSDDSAVYFCTRSGYYGSPKLGGDYWGQGTLVTVSS VL: EIVLTQSPSSLSASVGDRVTITCSASSSISYMHWYQQKSGTAPKLLIYSTSNLASGVPSRFSGSGSGTDFTFTISSLQPEDAATYYCHQWNSYPCTFGGGTKLEIK | 3.55 | 1.06 |
| hGPN06-1_H1L1 VH D52A (antibody, V domains shown) VH: QVQLVQSGAEVKKPGASVKVSCKASGYTFTDNWMGWVKQRPGQGLEWIGAIAPSDSFTNYNQNFKGRVTMTVDTSISTAYMELSRLRSDDSAVYFCTRSGYYGSPKLGGDYWGQGTLVTVSS VL: EIVLTQSPSSLSASVGDRVTITCSASSSISYMHWYQQKSGTAPKLLIYSTSNLASGVPSRFSGSGSGTDFTFTISSLQPEDAATYYCHQWNSYPCTFGGGTKLEIK | 2.79 | 0.51 |
| hGPN06-1_H1L1 VH N59A (antibody, V domains shown) VH: QVQLVQSGAEVKKPGASVKVSCKASGYTFTDNWMGWVKQRPGQGLEWIGAIDPSDSFTAYNQNFKGRVTMTVDTSISTAYMELSRLRSDDSAVYFCTRSGYYGSPKLGGDYWGQGTLVTVSS VL: EIVLTQSPSSLSASVGDRVTITCSASSSISYMHWYQQKSGTAPKLLIYSTSNLASGVPSRFSGSGSGTDFTFTISSLQPEDAATYYCHQWNSYPCTFGGGTKLEIK | 29.4 | 0.04 |

These reach a lower EC50 [1]. Values come first.

| EC50 [1] [nM] | Relative binding activity [2] | Binder |
| --- | --- | --- |
| 0.515 | 1.26 | hGPN06-1_H1L1 VH D31A (antibody, V domains shown) VH: QVQLVQSGAEVKKPGASVKVSCKASGYTFTANWMGWVKQRPGQGLEWIGAIDPSDSFTNYNQNFKGRVTMTVDTSISTAYMELSRLRSDDSAVYFCTRSGYYGSPKLGGDYWGQGTLVTVSS VL: EIVLTQSPSSLSASVGDRVTITCSASSSISYMHWYQQKSGTAPKLLIYSTSNLASGVPSRFSGSGSGTDFTFTISSLQPEDAATYYCHQWNSYPCTFGGGTKLEIK |
| 0.801 | 0.85 | hGPN06-1_H1L1 VH P53A (antibody, V domains shown) VH: QVQLVQSGAEVKKPGASVKVSCKASGYTFTDNWMGWVKQRPGQGLEWIGAIDASDSFTNYNQNFKGRVTMTVDTSISTAYMELSRLRSDDSAVYFCTRSGYYGSPKLGGDYWGQGTLVTVSS VL: EIVLTQSPSSLSASVGDRVTITCSASSSISYMHWYQQKSGTAPKLLIYSTSNLASGVPSRFSGSGSGTDFTFTISSLQPEDAATYYCHQWNSYPCTFGGGTKLEIK |
| 0.406 | 1.14 | hGPN06-1_H1L1 VH Q62A (antibody, V domains shown) VH: QVQLVQSGAEVKKPGASVKVSCKASGYTFTDNWMGWVKQRPGQGLEWIGAIDPSDSFTNYNANFKGRVTMTVDTSISTAYMELSRLRSDDSAVYFCTRSGYYGSPKLGGDYWGQGTLVTVSS VL: EIVLTQSPSSLSASVGDRVTITCSASSSISYMHWYQQKSGTAPKLLIYSTSNLASGVPSRFSGSGSGTDFTFTISSLQPEDAATYYCHQWNSYPCTFGGGTKLEIK |
| 0.652 | 0.92 | hGPN06-1_H1L1 VH S54A (antibody, V domains shown) VH: QVQLVQSGAEVKKPGASVKVSCKASGYTFTDNWMGWVKQRPGQGLEWIGAIDPADSFTNYNQNFKGRVTMTVDTSISTAYMELSRLRSDDSAVYFCTRSGYYGSPKLGGDYWGQGTLVTVSS VL: EIVLTQSPSSLSASVGDRVTITCSASSSISYMHWYQQKSGTAPKLLIYSTSNLASGVPSRFSGSGSGTDFTFTISSLQPEDAATYYCHQWNSYPCTFGGGTKLEIK |
| 0.429 | 1.14 | hGPN06-1_H1L1 VH S56A (antibody, V domains shown) VH: QVQLVQSGAEVKKPGASVKVSCKASGYTFTDNWMGWVKQRPGQGLEWIGAIDPSDAFTNYNQNFKGRVTMTVDTSISTAYMELSRLRSDDSAVYFCTRSGYYGSPKLGGDYWGQGTLVTVSS VL: EIVLTQSPSSLSASVGDRVTITCSASSSISYMHWYQQKSGTAPKLLIYSTSNLASGVPSRFSGSGSGTDFTFTISSLQPEDAATYYCHQWNSYPCTFGGGTKLEIK |
| 0.406 | 1.1 | hGPN06-1_H1L1 VH K65A (antibody, V domains shown) VH: QVQLVQSGAEVKKPGASVKVSCKASGYTFTDNWMGWVKQRPGQGLEWIGAIDPSDSFTNYNQNFAGRVTMTVDTSISTAYMELSRLRSDDSAVYFCTRSGYYGSPKLGGDYWGQGTLVTVSS VL: EIVLTQSPSSLSASVGDRVTITCSASSSISYMHWYQQKSGTAPKLLIYSTSNLASGVPSRFSGSGSGTDFTFTISSLQPEDAATYYCHQWNSYPCTFGGGTKLEIK |
| 0.448 | 1.11 | hGPN06-1_H1L1 VH F64A (antibody, V domains shown) VH: QVQLVQSGAEVKKPGASVKVSCKASGYTFTDNWMGWVKQRPGQGLEWIGAIDPSDSFTNYNQNAKGRVTMTVDTSISTAYMELSRLRSDDSAVYFCTRSGYYGSPKLGGDYWGQGTLVTVSS VL: EIVLTQSPSSLSASVGDRVTITCSASSSISYMHWYQQKSGTAPKLLIYSTSNLASGVPSRFSGSGSGTDFTFTISSLQPEDAATYYCHQWNSYPCTFGGGTKLEIK |
| 0.373 | 1.09 | hGPN06-1_H1L1 VH G66A (antibody, V domains shown) VH: QVQLVQSGAEVKKPGASVKVSCKASGYTFTDNWMGWVKQRPGQGLEWIGAIDPSDSFTNYNQNFKARVTMTVDTSISTAYMELSRLRSDDSAVYFCTRSGYYGSPKLGGDYWGQGTLVTVSS VL: EIVLTQSPSSLSASVGDRVTITCSASSSISYMHWYQQKSGTAPKLLIYSTSNLASGVPSRFSGSGSGTDFTFTISSLQPEDAATYYCHQWNSYPCTFGGGTKLEIK |
| 0.439 | 1.07 | hGPN06-1_H1L1 VH N63A (antibody, V domains shown) VH: QVQLVQSGAEVKKPGASVKVSCKASGYTFTDNWMGWVKQRPGQGLEWIGAIDPSDSFTNYNQAFKGRVTMTVDTSISTAYMELSRLRSDDSAVYFCTRSGYYGSPKLGGDYWGQGTLVTVSS VL: EIVLTQSPSSLSASVGDRVTITCSASSSISYMHWYQQKSGTAPKLLIYSTSNLASGVPSRFSGSGSGTDFTFTISSLQPEDAATYYCHQWNSYPCTFGGGTKLEIK |
